Results on 1 substance are retold here after article PMC6328183.

The assay deals with FuBc protein (recombinant protein of the fusion loop and Bc loop of domain II of dengue envelope protein with their neighbouring residues) (DENV-2 (of the template structure PDB 1OAN)). As to the kind of experiment: SPR; Biacore T200; FuBc immobilised by amine coupling; scFv injected at 10 uM down to 50 nM, 20 ul/min over 2 min; regeneration with 2 M NaCl; control flow cell subtracted; KD as kd/ka. On the technique in general: Surface plasmon resonance follows binding to a sensor surface in real time, without labels.

3IXY scFv antibody (VH and VL of the anti-fusion loop dengue E53 Fab, PDB 3IXY, joined by a (G4S)3 linker), sequence (VH): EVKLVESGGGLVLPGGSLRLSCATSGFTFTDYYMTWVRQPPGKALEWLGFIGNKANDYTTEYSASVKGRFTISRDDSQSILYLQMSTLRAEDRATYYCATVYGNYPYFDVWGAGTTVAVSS
3IXY scFv antibody (VH and VL of the anti-fusion loop dengue E53 Fab, PDB 3IXY, joined by a (G4S)3 linker), sequence (VL): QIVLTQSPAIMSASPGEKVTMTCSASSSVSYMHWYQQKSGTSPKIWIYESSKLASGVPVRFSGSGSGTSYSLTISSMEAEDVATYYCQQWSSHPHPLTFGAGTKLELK

The term Kd denotes the constant that tells how readily two partners part at equilibrium. “3IXY scFv antibody (VH and VL of the anti-fusion loop dengue E53 Fab, PDB 3IXY, joined by a (G4S)3 linker)”: the Kd came out at 2.3 µM.
